Experimental findings from PMC3527362, “Structural and Functional Insights into (S)-Ureidoglycolate Dehydrogenase, a Metabolic Branch Point Enzyme in Nitrogen Utilization” (PLoS ONE, 2012) are described below.

Usually kcat stands for the number of substrate molecules converted per active site and unit of time at saturation. As a reminder, the kcat/Km is the turnover number divided by the Michaelis constant. What is called stoichiometry N is the number of molecules, sites or subunits per partner or assembly.

Data set [1] deals with T1, (S)-ureidoglycolate dehydrogenase (AllD) (Escherichia coli, UniProt P77555).
T1 construct: full length, modified pET28b with N-terminal His-tag and TEV site, expressed in E. coli BL21(DE3); tag cut for crystals, kept on mutant enzymes for kinetics; homodimer
In words: X-ray crystal structure, soaking, […] Å. Format: binding. The note with it: ternary complex with NADH; soaked with 7.5 mM oxalurate reaction mixture, glyoxylate modelled in subunit A only, pH 8.1.

In data set [2] the target is T1, (S)-ureidoglycolate dehydrogenase (AllD). Description: X-ray crystal structure, soaking, […] Å. The conditions noted are these: 100 mM NADH soak, pH 8.1; one NADH in each subunit; site includes residues of the other subunit. Format: binding.
Substrate in data set [3]: NC(=O)N[C@@H](O)C(=O)O
In words: purified protein. It is filed as biochemical, Escherichia coli. The note with it: 3 mM NAD+ (saturating), 30 °C, value in parentheses is standard error.

Substrate in data set [4]: NC(=O)c1ccc[n+]([C@@H]2O[C@H](COP(=O)(O)OP(=O)(O)OC[C@H]3O[C@@H](n4cnc5c(N)ncnc54)[C@H](O)[C@@H]3O)[C@@H](O)[C@H]2O)c1
Description: purified protein. Format: biochemical, Escherichia coli. The note with it: 15.3 mM (S)-ureidoglycolate, 30 °C, value in parentheses is standard error.

Data set [5] deals with the molecule itself. In words: SEC; size-exclusion chromatography of AllD; conditions not described.

`O=CC(=O)O` [glyoxylate]: in data set [1], the “X-ray crystal structure, soaking, 1.77 Å” value was 4FJU for the AllD-NADH-glyoxylate ternary complex.

Regarding `NC(=O)C1=CN([C@@H]2O[C@H](COP(=O)(O)OP(=O)(O)OC[C@H]3O[C@@H](n4cnc5c(N)ncnc54)[C@H](O)[C@@H]3O)[C@@H](O)[C@H]2O)C=CC1` [NADH], the “X-ray crystal structure, soaking, 1.64 Å” value in data set [2] was 4H8A for the AllD-NADH binary complex.

B1: (S)-ureidoglycolate dehydrogenase (AllD) (Escherichia coli K-12; Y52F) (protein)
chain: MKISRETLHQLIENKLCQAGLKREHAATVAEVLVYADARGIHSHGAVRVEYFAERISKGGTNREPEFRLEETGPCSAILHADNAAGQVAAKMGMEHAIKTAQQNGVAVVGISRMGHSGAISYFVQQAARAGFIGISMCQSDPMVVPFGGAEIYYGTNPLAFAAPGEGDEILTFDMATTVQAWGKVLDARSRNMSIPDTWAVDKNGVPTTDPFAVHALLPAAGPKGYGLMMMIDVLSGVLLGLPFGRQVSSMYDDLHAGRNLGQLHIVINPNFFSSSELFRQHLSQTMRELNAITPAPGFNQVYYPGQDQDIKQRKAAVEGIEIVDDIYQYLISDALYNTSYETKNPFAQ
notes: full length, modified pET28b with N-terminal His-tag and TEV site, expressed in E. coli BL21(DE3); tag cut for crystals, kept on mutant enzymes for kinetics; homodimer
As to B1, in “purified protein [3]” (His-tag kept), the Km is on record as 16.82 (3.92) mM, the kcat amounted to 1.92 s⁻¹ and the kcat/Km is 110 M⁻¹ s⁻¹.

B2: (S)-ureidoglycolate dehydrogenase (AllD) (Escherichia coli K-12; R259A) (protein)
chain: MKISRETLHQLIENKLCQAGLKREHAATVAEVLVYADARGIHSHGAVRVEYYAERISKGGTNREPEFRLEETGPCSAILHADNAAGQVAAKMGMEHAIKTAQQNGVAVVGISRMGHSGAISYFVQQAARAGFIGISMCQSDPMVVPFGGAEIYYGTNPLAFAAPGEGDEILTFDMATTVQAWGKVLDARSRNMSIPDTWAVDKNGVPTTDPFAVHALLPAAGPKGYGLMMMIDVLSGVLLGLPFGRQVSSMYDDLHAGANLGQLHIVINPNFFSSSELFRQHLSQTMRELNAITPAPGFNQVYYPGQDQDIKQRKAAVEGIEIVDDIYQYLISDALYNTSYETKNPFAQ
notes: as for B1
Take B2: in the data set “purified protein [3]” (His-tag kept), the Km is on record as 11.47 (1.25) mM, the kcat came out at 12 s⁻¹ and the kcat/Km was 1040 M⁻¹ s⁻¹. Also, in the data set “purified protein [4]” (His-tag kept), the Km is given as 1.49 (0.07) mM, the kcat is 9.29 s⁻¹ and the catalytic efficiency (kcat/Km) amounted to 6230 M⁻¹ s⁻¹.

B3: (S)-ureidoglycolate dehydrogenase (AllD) (Escherichia coli K-12; D141E) (protein)
chain: MKISRETLHQLIENKLCQAGLKREHAATVAEVLVYADARGIHSHGAVRVEYYAERISKGGTNREPEFRLEETGPCSAILHADNAAGQVAAKMGMEHAIKTAQQNGVAVVGISRMGHSGAISYFVQQAARAGFIGISMCQSEPMVVPFGGAEIYYGTNPLAFAAPGEGDEILTFDMATTVQAWGKVLDARSRNMSIPDTWAVDKNGVPTTDPFAVHALLPAAGPKGYGLMMMIDVLSGVLLGLPFGRQVSSMYDDLHAGRNLGQLHIVINPNFFSSSELFRQHLSQTMRELNAITPAPGFNQVYYPGQDQDIKQRKAAVEGIEIVDDIYQYLISDALYNTSYETKNPFAQ
notes: as for B1
B3: in “purified protein [3]” (His-tag kept), the Km is 14.13 (2.37) mM, the kcat is 1.67 s⁻¹ and the kcat/Km stood at 120 M⁻¹ s⁻¹.

B4: (S)-ureidoglycolate dehydrogenase (AllD) (Escherichia coli K-12; S43A) (protein)
chain: MKISRETLHQLIENKLCQAGLKREHAATVAEVLVYADARGIHAHGAVRVEYYAERISKGGTNREPEFRLEETGPCSAILHADNAAGQVAAKMGMEHAIKTAQQNGVAVVGISRMGHSGAISYFVQQAARAGFIGISMCQSDPMVVPFGGAEIYYGTNPLAFAAPGEGDEILTFDMATTVQAWGKVLDARSRNMSIPDTWAVDKNGVPTTDPFAVHALLPAAGPKGYGLMMMIDVLSGVLLGLPFGRQVSSMYDDLHAGRNLGQLHIVINPNFFSSSELFRQHLSQTMRELNAITPAPGFNQVYYPGQDQDIKQRKAAVEGIEIVDDIYQYLISDALYNTSYETKNPFAQ
notes: as for B1
For B4, in the data set “purified protein [3]” (His-tag kept), the Km is 10.75 (1.01) mM, the kcat was found to be 1.37 s⁻¹ and the kcat/Km was found to be 130 M⁻¹ s⁻¹.

B5: (S)-ureidoglycolate dehydrogenase (AllD) (Escherichia coli K-12; D141A) (protein)
chain: MKISRETLHQLIENKLCQAGLKREHAATVAEVLVYADARGIHSHGAVRVEYYAERISKGGTNREPEFRLEETGPCSAILHADNAAGQVAAKMGMEHAIKTAQQNGVAVVGISRMGHSGAISYFVQQAARAGFIGISMCQSAPMVVPFGGAEIYYGTNPLAFAAPGEGDEILTFDMATTVQAWGKVLDARSRNMSIPDTWAVDKNGVPTTDPFAVHALLPAAGPKGYGLMMMIDVLSGVLLGLPFGRQVSSMYDDLHAGRNLGQLHIVINPNFFSSSELFRQHLSQTMRELNAITPAPGFNQVYYPGQDQDIKQRKAAVEGIEIVDDIYQYLISDALYNTSYETKNPFAQ
notes: as for B1
On to B5, for which, in “purified protein [3]” (His-tag kept), the Km was 5.27 (0.46) mM, the kcat was determined as 1.62 s⁻¹ and the kcat/Km was found to be 310 M⁻¹ s⁻¹.

B6: (S)-ureidoglycolate dehydrogenase (AllD) (Escherichia coli K-12; D141N) (protein)
chain: MKISRETLHQLIENKLCQAGLKREHAATVAEVLVYADARGIHSHGAVRVEYYAERISKGGTNREPEFRLEETGPCSAILHADNAAGQVAAKMGMEHAIKTAQQNGVAVVGISRMGHSGAISYFVQQAARAGFIGISMCQSNPMVVPFGGAEIYYGTNPLAFAAPGEGDEILTFDMATTVQAWGKVLDARSRNMSIPDTWAVDKNGVPTTDPFAVHALLPAAGPKGYGLMMMIDVLSGVLLGLPFGRQVSSMYDDLHAGRNLGQLHIVINPNFFSSSELFRQHLSQTMRELNAITPAPGFNQVYYPGQDQDIKQRKAAVEGIEIVDDIYQYLISDALYNTSYETKNPFAQ
notes: as for B1
In the case of B6, in the data set “purified protein [3]” (His-tag kept), the Km was 5.84 (0.25) mM, the kcat turned out to be 1.97 s⁻¹ and the catalytic efficiency (kcat/Km) came to 340 M⁻¹ s⁻¹.

B7: (S)-ureidoglycolate dehydrogenase (AllD) from Escherichia coli (enzyme, Escherichia coli str. K-12 substr. DH10b, UniProt P77555 1-349, looked up)
chain: MKISRETLHQLIENKLCQAGLKREHAATVAEVLVYADARGIHSHGAVRVEYYAERISKGGTNREPEFRLEETGPCSAILHADNAAGQVAAKMGMEHAIKTAQQNGVAVVGISRMGHSGAISYFVQQAARAGFIGISMCQSDPMVVPFGGAEIYYGTNPLAFAAPGEGDEILTFDMATTVQAWGKVLDARSRNMSIPDTWAVDKNGVPTTDPFAVHALLPAAGPKGYGLMMMIDVLSGVLLGLPFGRQVSSMYDDLHAGRNLGQLHIVINPNFFSSSELFRQHLSQTMRELNAITPAPGFNQVYYPGQDQDIKQRKAAVEGIEIVDDIYQYLISDALYNTSYETKNPFAQ
notes: (S)-ureidoglycolate dehydrogenase AllD, product of the allD gene of E. coli str; K-12 substr; DH10b; ordered residues in the crystals Met1 to Tyr337/Asn338 (subunit A); Homodimer; Cloned into a modified pET28b with a TEV site between the His-tag and the multicloning sites; also called EC 1.1.1.154; not shown: His-tag, N-terminal, cleaved
As to B7, in the data set “purified protein [3]”, the Km is on record as 1.06 (0.08) mM, the kcat is 57.1 s⁻¹ and the kcat/Km came to 54300 M⁻¹ s⁻¹. Also, in “purified protein [4]”, the Km is recorded as 0.56 (0.04) mM, the kcat is 62.4 s⁻¹ and the kcat/Km was 110000 M⁻¹ s⁻¹. In addition, the “stoichiometry N” value in data set [5] turned out to be 2.

B8: (S)-ureidoglycolate dehydrogenase (AllD) (Escherichia coli K-12; S140A) (protein)
chain: MKISRETLHQLIENKLCQAGLKREHAATVAEVLVYADARGIHSHGAVRVEYYAERISKGGTNREPEFRLEETGPCSAILHADNAAGQVAAKMGMEHAIKTAQQNGVAVVGISRMGHSGAISYFVQQAARAGFIGISMCQADPMVVPFGGAEIYYGTNPLAFAAPGEGDEILTFDMATTVQAWGKVLDARSRNMSIPDTWAVDKNGVPTTDPFAVHALLPAAGPKGYGLMMMIDVLSGVLLGLPFGRQVSSMYDDLHAGRNLGQLHIVINPNFFSSSELFRQHLSQTMRELNAITPAPGFNQVYYPGQDQDIKQRKAAVEGIEIVDDIYQYLISDALYNTSYETKNPFAQ
notes: as for B1
Regarding B8, in the data set “purified protein [3]” (His-tag kept), the Km was 12.38 (2.19) mM, the kcat stood at 1.29 s⁻¹ and the kcat/Km was found to be 100 M⁻¹ s⁻¹.

B9: (S)-ureidoglycolate dehydrogenase (AllD) (Escherichia coli K-12; M251A) (protein)
chain: MKISRETLHQLIENKLCQAGLKREHAATVAEVLVYADARGIHSHGAVRVEYYAERISKGGTNREPEFRLEETGPCSAILHADNAAGQVAAKMGMEHAIKTAQQNGVAVVGISRMGHSGAISYFVQQAARAGFIGISMCQSDPMVVPFGGAEIYYGTNPLAFAAPGEGDEILTFDMATTVQAWGKVLDARSRNMSIPDTWAVDKNGVPTTDPFAVHALLPAAGPKGYGLMMMIDVLSGVLLGLPFGRQVSSAYDDLHAGRNLGQLHIVINPNFFSSSELFRQHLSQTMRELNAITPAPGFNQVYYPGQDQDIKQRKAAVEGIEIVDDIYQYLISDALYNTSYETKNPFAQ
notes: as for B1
For B9, in “purified protein [3]” (His-tag kept), the Km is listed as 13.15 (1.62) mM, the kcat was found to be 46 s⁻¹ and the kcat/Km came to 3490 M⁻¹ s⁻¹.

B10: (S)-ureidoglycolate dehydrogenase (AllD) (Escherichia coli K-12; H44A) (protein)
chain: MKISRETLHQLIENKLCQAGLKREHAATVAEVLVYADARGIHSAGAVRVEYYAERISKGGTNREPEFRLEETGPCSAILHADNAAGQVAAKMGMEHAIKTAQQNGVAVVGISRMGHSGAISYFVQQAARAGFIGISMCQSDPMVVPFGGAEIYYGTNPLAFAAPGEGDEILTFDMATTVQAWGKVLDARSRNMSIPDTWAVDKNGVPTTDPFAVHALLPAAGPKGYGLMMMIDVLSGVLLGLPFGRQVSSMYDDLHAGRNLGQLHIVINPNFFSSSELFRQHLSQTMRELNAITPAPGFNQVYYPGQDQDIKQRKAAVEGIEIVDDIYQYLISDALYNTSYETKNPFAQ
notes: as for B1
Regarding B10, in “purified protein [3]” (His-tag kept), the Km was 16.94 (2.04) mM, the kcat came out at 1.76 s⁻¹ and the kcat/Km is 100 M⁻¹ s⁻¹.
